The values that follow come from the supplement of paper PMC9170038.

The series deals with MS2 coat protein. Briefly: apparent KD of MS2 coat protein; designed switch direction (-1 OFF switch, 1 ON switch): -1; higher = weaker reporter binding. The procedure, abridged: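 An oligonucleotide input, 200 uM small-molecule ligand, or no input was present during titration of SNAP-549-labelled MS2 coat protein, which was doubled from 0.7 or 1.5 nM to 3 µM. Designed RNA switches had been transcribed on Illumina chips by stalled E. coli RNA polymerase. Apparent KD per design is the median over clusters of curves fitted to normalised cluster fluorescence.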

The mark [1] stands for this setting: Eterna round: R95, input ligand: microRNA oligo, concentration not stated.
Where [2] appears, read: Eterna round: R95, input ligand: FMN 200 uM.
[3] abbreviates: Eterna round: R95, input ligand: none.

In the case of “UGAUCUAGCGGAGGAUAUACAUGAGGAUCACCCAUGUAUAGUCUAUGACCGUAGUCGUGGACCGUGUAGAAGGCCGCUAGAUCU [JL ENG2 3.77] (Eterna round: R96, puzzle: Exclusion NG 2)”, the “apparent KD of MS2 coat protein” value is 16.5 nM (input ligand: FMN 200 uM); 11.4 nM (input ligand: microRNA oligo, concentration not stated); 11 nM (input ligand: none).

Turning to “UGAUCUUGAGUCAGGAUAUGCUGGUUUUUUUUUUAGCAGAAGGGACAUGAGGAUCACCCAUGUUCUCACUUUUU [Magic-12] (puzzle: Brourd's mod of Exclusion 4)”, the “apparent KD of MS2 coat protein” value under setting [1] amounted to 16.8 nM.

With “UGAUGCUCAGGAUAUACAUCAGUGUUCAGGCCAAAAGGCGGACAUGAGGAUCACCCAUGUAGAAGGGAGCGUUC [Eternabot (L1) Solution 13] (Eterna round: R97, puzzle: Exclusion 2)”, the “apparent KD of MS2 coat protein” value reads like this: (input ligand: FMN 200 uM) 900 nM; (input ligand: none) 380 nM.

As to “UGAUGUUGAUAGGAUAUACAGGUAGGAGUAGGAGUAGAAGGAUCUACAUGAGGAUCACCCAUGUAGGAGUGAGA [JR_E6_Sub001] (puzzle: Exclusion 6)”, the “apparent KD of MS2 coat protein” value turned out to be 21.7 nM under setting [2], 12.5 nM under setting [1] and 16.4 nM under setting [3].

In the case of “UGAUUGUUUACCAGGUUAUACAUGAGGAUCACCCAUGUAGAUCCUACGUGCACGUUAUACCGCUCGUCUUAUUCCCA [Sensor-V1 #76] (Eterna round: R97, puzzle: Sensor, turn-off variant 1)”, the “apparent KD of MS2 coat protein” value runs as follows: (input ligand: FMN 200 uM) 21.4 nM; (input ligand: none) 20.7 nM.

For “UGCAGACGAGGAUAUAAACGAUAUAACAUGAGGAUCACCCAUGUACGAUCGAUAGAUCGUUUAGAAGGCGUCUGCA [E5/9-A2] (Eterna round: R97, puzzle: Exclusion 5)”, the “apparent KD of MS2 coat protein” value (input ligand: FMN 200 uM) came to 12.8 nM and the “apparent KD of MS2 coat protein” value (input ligand: none) is 14.5 nM.

Turning to “UGCAGACGAGGAUAUAAACGAUAUAACAUGAGGAUCACCCAUGUACGAUCGAUAGAUCGUUUAGAAGGCGUCUGCU [E5/9-A3] (Eterna round: R97, puzzle: Exclusion 5)”, the “apparent KD of MS2 coat protein” value (input ligand: FMN 200 uM) is 14.5 nM and the “apparent KD of MS2 coat protein” value (input ligand: none) is 14.1 nM.

Turning to “UGCAGACGAGGAUAUAAAUUUGAUAACAUGAGGAUCACCCAUGUGAUCGAUAGAUCAAAUUUAGAAGGUGUCUGCA [E5/7-B2] (Eterna round: R97, puzzle: Exclusion 5)”, the “apparent KD of MS2 coat protein” value by setting is: (input ligand: FMN 200 uM) 443 nM; (input ligand: none) 576 nM.

For the sequence “UGCAGACGAGGAUAUAGAUUUAAGUACAUGAGGAUCACCCAUGUACAUAUGUAUUUAGAUUUAGAAGGCGUCUGCA [E5/16-A2] (Eterna round: R97, puzzle: Exclusion 5)”, the “apparent KD of MS2 coat protein” value is, setting by setting: (input ligand: FMN 200 uM) 28.2 nM; (input ligand: none) 27.7 nM.

For the sequence “UGCAGACGAGGAUAUAGAUUUAGAUACAUGAGGAUCACCCAUGUAUAGAUGUAUUUAGAUUUAGAAGGCGUCUGCA [E5/13-A1] (Eterna round: R97, puzzle: Exclusion 5)”, the “apparent KD of MS2 coat protein” value runs as follows: (input ligand: FMN 200 uM) 401 nM; (input ligand: none) 305 nM.

In the case of “UGCAGACGAGGAUAUAGAUUUGAUAACAUGAGGAUCACCCAUGUGAUCGAUAGAUCAGAUUUAGAAGGCGUCUGCU [E5/8-A4] (Eterna round: R97, puzzle: Exclusion 5)”, the “apparent KD of MS2 coat protein” value (input ligand: FMN 200 uM) came out at 586 nM and the “apparent KD of MS2 coat protein” value (input ligand: none) worked out at 715 nM.

With “UGCAUCUGAGGAUAUCACAUGUGGAACAUGAGGAUCACCCAUGUGAUCCACAUGCCGUUGUGAGAAGGCAGUAAAA [Isteon] (puzzle: Exclusion 5)”, the “apparent KD of MS2 coat protein” value under setting [1] was determined as 268 nM.

With “UGCAUGCUAGGAUAUACGAAACAUUAGGGUUCUUUGUGUGAACAUGAGGAUCACCCAUGUAGAAGGAGCGUGCU [Mod8 of JL-ex2-2.15 mat747 mod] (puzzle: Exclusion 2)”, the “apparent KD of MS2 coat protein” value under setting [1] was found to be 127 nM.

Take “UGCAUGCUAGGAUAUACGGGACAUUAGGGUUCGUUGUGUGGACAUGAGGAUCACCCAUGUAGAAGGAGCGUGCU [Mod of JL-ex2-2.15 mat747 mod] (puzzle: Exclusion 2)”: the “apparent KD of MS2 coat protein” value under setting [1] stood at 69.3 nM.

Take “UGCAUGCUAGGAUAUACGGGACAUUAGGGUUUGUCGUGUGGACAUGAGGAUCACCCAUGUAGAAGGAGCGUGCU [Mod2 of JL-ex2-2.15 mat747 mod] (puzzle: Exclusion 2)”: the “apparent KD of MS2 coat protein” value under setting [1] turned out to be 43.6 nM.

Consider “UGCAUGCUAGGAUAUGCCGAGGAGAACAUGAGGAUCACCCAUGUGACCCGGAUGCCUUGAGCAGAAGGAGCUACUA [EX5 C.19] (Eterna round: R97, puzzle: Exclusion 5)”, for which the “apparent KD of MS2 coat protein” value (input ligand: FMN 200 uM) came to 22.4 nM and the “apparent KD of MS2 coat protein” value (input ligand: none) was determined as 15.2 nM.

Consider “UGCAUGUGAGGAUAUGUGUACUGUCUUUUGUUUAGAUGUACACAGAAGGCACAUGAGGAUCACCCAUGUAGUAC [Ex4 - 3 - 34] (puzzle: Exclusion 4)”, for which the “apparent KD of MS2 coat protein” value under setting [1] was determined as 59.1 nM.

In the case of “UGCCGUAGAGGAUAUACAUUGAAAUAGAUUCAUGUAAAACUACAUGAGGAUCACCCAUGUAGAAGGCUAUGGCU [JL-ex2-4.34 Eli mod] (Eterna round: R97, puzzle: Exclusion 2)”, the “apparent KD of MS2 coat protein” value by setting is: (input ligand: FMN 200 uM) 68.4 nM; (input ligand: none) 23 nM.

Take “UGCCGUAGAGGAUAUACAUUGAAUAAGAUUCAUGUAAAACUACAUGAGGAUCACCCAUGUAGAAGGCUAUGGCU [JL-ex2-4.37 Eli mod] (Eterna round: R97, puzzle: Exclusion 2)”: the “apparent KD of MS2 coat protein” value runs as follows: (input ligand: FMN 200 uM) 38.6 nM; (input ligand: none) 14.7 nM.

As to “UGCCUACAUGAGGAUCACCCAUGUGAGGAUAUCCUGCGAGGAUCAAAAGAUCCUCGUGGGAGAAGGCACAUGAA [Omei Ex1 B1] (Eterna round: R97, puzzle: Exclusion 1)”, the “apparent KD of MS2 coat protein” value is, setting by setting: (input ligand: FMN 200 uM) 146 nM; (input ligand: none) 38.5 nM.

“UGCCUUUGAGGAUAUACAUAGAAAUAGAUUCAUGUAAAACUACAUGAGGAUCACCCAUGUAGAAGGCAAGGGCU [Mat - Exclusion 2 - JL Mod - D52] (Eterna round: R97, puzzle: Exclusion 2)”: the “apparent KD of MS2 coat protein” value runs as follows: (input ligand: FMN 200 uM) 83.6 nM; (input ligand: none) 24 nM.

In the case of “UGCGUUAGAGGAUAUACGUAGAACUAGGUUCAUGUAAAACUACAUGAGGAUCACCCAUGUAGAAGGCUAGCGCU [Mat - Exclusion 2 - JL Mod - D43] (Eterna round: R97, puzzle: Exclusion 2)”, the “apparent KD of MS2 coat protein” value (input ligand: FMN 200 uM) was 20.4 nM and the “apparent KD of MS2 coat protein” value (input ligand: none) amounted to 15.4 nM.

As to “UGCUACGGAGGAUAUACAUGAGGAUCACCCAUGUGUGAGAUUUGGCCGAGAGGCCAAUGUAGAAGGCCGUAGCU [jl-ex3-4.20 jl mod] (Eterna round: R97, puzzle: Exclusion 3)”, the “apparent KD of MS2 coat protein” value reads like this: (input ligand: FMN 200 uM) 371 nM; (input ligand: none) 35.9 nM.

Regarding “UGCUAGUCAGGAUAUACGAACAUGUCAAAAGACGUGAAGGGACAUGAGGAUCACCCAUGUAGAAGGGACUAGCG [salish99_ex2_r3_007] (puzzle: Exclusion 2)”, the “apparent KD of MS2 coat protein” value reads like this: under setting [2], 144 nM; under setting [1], 27.2 nM; under setting [3], 27.9 nM.

In the case of “UGGCGUUAAGGAUAUACAUGAGGAUCACCCAUGUUUCGGGAGAGCCAUUGAGCCGCAAGUAGAAGGUAGUACCC [Eternabot (L2) Solution 23] (Eterna round: R97, puzzle: Exclusion 3)”, the “apparent KD of MS2 coat protein” value is, setting by setting: (input ligand: FMN 200 uM) 37.4 nM; (input ligand: none) 47.9 nM.

On to “UGGCUAAGAGGAUAUACAUUGAAUAAGAUUCAUGUAAAACUACAUGAGGAUCACCCAUGUAGAAGGCUUGGCCU [Mat - Exclusion 2 - JL Mod - D72] (Eterna round: R97, puzzle: Exclusion 2)”, for which the “apparent KD of MS2 coat protein” value came to 25.4 nM (input ligand: FMN 200 uM) and 17.4 nM (input ligand: none).

For “UGGGUACUCCAUAGAAGAGACAUGAGGAUCACCCAUGUAGGACAAGCUUUUUGCUCGUCUUAAGAUGAGAGAUAGGA [JR_SV3TOV1_Sub013] (puzzle: Sensor v3, turn-off variant 1)”, the “apparent KD of MS2 coat protein” value runs as follows: under setting [2], 143 nM; under setting [1], 114 nM; under setting [3], 126 nM.

Turning to “UGGGUACUCCAUAGAAGAGACAUGAGGAUCACCCAUGUAGGGCAAGCUUUUUGCUCGUCUUAGGUUGAGGGAUAGGA [JR_SV3TOV1_Sub015] (puzzle: Sensor v3, turn-off variant 1)”, the “apparent KD of MS2 coat protein” value under setting [2] is 166 nM, the “apparent KD of MS2 coat protein” value under setting [1] came to 80.7 nM and the “apparent KD of MS2 coat protein” value under setting [3] is 280 nM.

For the sequence “UGGUCACAUGAGGAUCACCCAUGUCAGGAUAUCGUCACUGGAGCUUCGGCUCCAGUGACGAGAAGGGACAUAAU [E1/6-A1] (Eterna round: R97, puzzle: Exclusion 1)”, the “apparent KD of MS2 coat protein” value is, setting by setting: (input ligand: FMN 200 uM) 47 nM; (input ligand: none) 394 nM.

For “UGGUGUGAAGGAUAUACAUGAGGAUCACCCAUGUAUGAGGUGGAGGUUGAGGUGGAGGGUAGAAGGUCAGGUGG [JR_Exclusion3_Sub012] (puzzle: Exclusion 3)”, under setting [1], the “apparent KD of MS2 coat protein” value came out at 26.8 nM.

On to “UGGUGUGAAGGAUAUACAUGAGGAUCACCCAUGUAUGUGGUGUGUGUUGAGGUGGAGGGUAGAAGGUCAGGUGG [JR_Exclusion3_Sub014] (puzzle: Exclusion 3)”, for which the “apparent KD of MS2 coat protein” value under setting [1] is 35.9 nM.

Consider “UGUAACCUAGGAUAUACAUGAGGAUCACCCAUGUAAUGUAGUAUAGUGUGUGUAAGGUGUAGAAGGAGGAAUGU [LRO-Excl05-23-Smart Aleck] (Eterna round: R97, puzzle: Exclusion 3)”, for which the “apparent KD of MS2 coat protein” value is, setting by setting: (input ligand: FMN 200 uM) 76.2 nM; (input ligand: none) 52.6 nM.

For the sequence “UGUACGAUGCGUGCUGACAUGCGUCGUGCAGCAAGCUUUACAUGAGGAUCACCCAUGUCCUCACUUGCUCGUCUUGU (puzzle: Sensor v3, turn-off variant 2)”, the “apparent KD of MS2 coat protein” value was 643 nM under setting [2], 21.3 nM under setting [1] and 490 nM under setting [3].
